For 38 variants, self-cleavage results are on record in the RNAGym collection of RNA variant scans (doi:10.7554/elife.80360).

The labels stand for the following.
B1: Hairpin Ribozyme (parent)
chain: GUCCUCUUUCACGUGCGCGUGAAAGAGAGAAGUGAACCAGAGAAACACACGUUGUGGUAUAUUACCUGGUA

Variants of B1 are the subject of this data set. Briefly: self-cleavage, relative activity (ratio to wild type); higher = more cleavage; co-transcriptional.
Turning to GUCCUCUUUCACGUGCGCGUGAAAGAGAGAAGUGAACCACAGAAACACACGUUGUGGUAUAUUACCUGGUC, the self-cleavage amounted to 0.401. As for GUCCUCUUUCACGUGCGCGUGAAAGAGAGAAGUGAACCUGAAAAACACACGUUGUGGUAUAUUACCUGGUA, the self-cleavage was 0.18.

GUCCUCUUUCACGUGCGCGUGAAAGAGAGAAGUGAACCUGACAAACACACGUUGUGGUAUAUUACCUGGUA: the self-cleavage was 0.158. Regarding GUCCUCUUUCACGUGCGCGUGAAAGAGAGAAGUGAACCACAGAAACACUCGUUGUGGUAUAUUACCUGGUA, the self-cleavage turned out to be 0.169. Next, GUCCUCUUUCACGUGCGCGUGAAAGAGAGAAGUGAACCACAGAAACACGCGUUGUGGUAUAUUACCUGGUA: 0.132; GUCCUCUUUCACGUGCGCGUGAAAGAGAGAAGUGAACCACAGAAACACCCGUUGUGGUAUAUUACCUGGUA: 0.0764. With GUCCUCUUUCACGUGCGCGUGAAAGAGAGAAGUGAACCUGAGAAAGACACGUUGUGGUAUAUUACCUGGUA, the self-cleavage was determined as 0.164.

Consider GUCCUCUUUCACGUGCGCGUGAAAGAGAGAAGUGAACCUGAGAAACACACGUUGCGGUAUAUUACCUGGUA, for which the self-cleavage is 0.183. Next, GUCCUCUUUCACGUGCGCGUGAAAGAGAGAAGUGAACCUGAGAAACACACGUUGGGGUAUAUUACCUGGUA: 0.108; GUCCUCUUUCACGUGCGCGUGAAAGAGAGAAGUGAACCUGAGAAACACACGUUGUGGUAUAUUUCCUGGUA: 0.16; GUCCUCUUUCACGUGCGCGUGAAAGAGAGAAGUGAACCACAGAGACACACGUUGUGGUAUAUUACCUGGUA: 0.101.

Consider GUCCUCUUUCACGUGCGCGUGAAAGAGAGAAGUGAACCACAGAUACACACGUUGUGGUAUAUUACCUGGUA, for which the self-cleavage stood at 0.151. On to GUCCUCUUUCACGUGCGCGUGAAAGAGAGAAGUGAACCUGAGAAACACACGUUGUGGUAUAUAACCUGGUA, for which the self-cleavage was 0.114. Take GUCCUCUUUCACGUGCGCGUGAAAGAGAGAAGUGAACCUGAGAAACACACGUUGUGGUAUAUGACCUGGUA: the self-cleavage is 0.137.

Regarding GUCCUCUUUCACGUGCGCGUGAAAGAGAGAAGUGAACCACAUAAACACACGUUGUGGUAUAUUACCUGGUA, the self-cleavage was determined as 0.191. Take GUCCUCUUUCACGUGCGCGUGAAAGAGAGAAGUGAACCACAAAAACACACGUUGUGGUAUAUUACCUGGUA: the self-cleavage came out at 0.0581. Turning to GUCCUCUUUCACGUGCGCGUGAAAGAGAGAAGUGAACCUGAGAAACACACGUUGUGGUAUAUUAUCUGGUA, the self-cleavage was found to be 0.201. As to GUCCUCUUUCACGUGCGCGUGAAAGAGAGAAGUGAACCUGAGAAACACACGUUGUGGUAUAUUAACUGGUA, the self-cleavage is 0.238. Regarding GUCCUCUUUCACGUGCGCGUGAAAGAGAGAAGUGAACCAAAGAAACACACGUUGUAGUAUAUUACCUGGUA, the self-cleavage is 0.117.

As to GUCCUCUUUCACGUGCGCGUGAAAGAGAGAAGUGAACCUGAGAAACAGACGUUGUGGUAUAUUACCUGGUA, the self-cleavage stood at 0.124.

Regarding GUCCUCUUUCACGUGCGCGUGAAAGAGAGAAGUGAACCUGAGAAACAUACGUUGUGGUAUAUUACCUGGUA, the self-cleavage was determined as 0.206. For GUCCUCUUUCACGUGCGCGUGAAAGAGAGAAGUGAACCUGAGAAACAAACGUUGUGGUAUAUUACCUGGUA, the self-cleavage was 0.135. Turning to GUCCUCUUUCACGUGCGCGUGAAAGAGAGAAGUGAACCACAGAAACACACGUUGUGGUAUAUUAACUGGUA, the self-cleavage worked out at 0.145. As to GUCCUCUUUCACGUGCGCGUGAAAGAGAGAAGUGAACCACAGAAACACACGUUGUGGUAUAUUAGCUGGUA, the self-cleavage was determined as 0.156. Then GUCCUCUUUCACGUGCGCGUGAAAGAGAGAAGUGAACCAAACAAACACACGUUGUGGUAUAUUACCUGGUA, with 0.0893. Take GUCCUCUUUCACGUGCGCGUGAAAGAGAGAAGUGAACCAAAGAAACACCCGUUGUGGUAUAUUACCUGGUA: the self-cleavage was 0.0897. For the variant GUCCUCUUUCACGUGCGCGUGAAAGAGAGAAGUGAACCAAAGAAAUACACGUUGUGGUAUAUUACCUGGUA, the self-cleavage came to 0.147.

GUCCUCUUUCACGUGCGCGUGAAAGAGAGAAGUGAACCAAAGAAAGACACGUUGUGGUAUAUUACCUGGUA: the self-cleavage is 0.136. Next, GUCCUCUUUCACGUGCGCGUGAAAGAGAGAAGUGAACCAAAGAAACACACGUUGGGGUAUAUUACCUGGUA: 0.121; GUCCUCUUUCACGUGCGCGUGAAAGAGAGAAGUGAACCAAAGAAACACACGUUGCGGUAUAUUACCUGGUA: 0.144; GUCCUCUUUCACGUGCGCGUGAAAGAGAGAAGUGAACCAAAGAAACACACGUAGUGGUAUAUUACCUGGUA: 0.424. With GUCCUCUUUCACGUGCGCGUGAAAGAGAGAAGUGAACCAAAGAAACACAUGUUGUGGUAUAUUACCUGGUA, the self-cleavage came out at 0.195.

GUCCUCUUUCACGUGCGCGUGAAAGAGAGAAGUGAACCAAAGAAACACACGUUGUGGUGUAUUACCUGGUA: the self-cleavage came to 0.0897. Consider GUCCUCUUUCACGUGCGCGUGAAAGAGAGAAGUGAACCAAAGAAACCCACGUUGUGGUAUAUUACCUGGUA, for which the self-cleavage amounted to 0.194. Take GUCCUCUUUCACGUGCGCGUGAAAGAGAGAAGUGAACCAAAGAAACUCACGUUGUGGUAUAUUACCUGGUA: the self-cleavage turned out to be 0.154. On to GUCCUCUUUCACGUGCGCGUGAAAGAGAGAAGUGAACCUGAGAAACACACGUUGUGGAAUAUUACCUGGUA, for which the self-cleavage was found to be 0.328.

Consider GUCCUCUUUCACGUGCGCGUGAAAGAGAGAAGUGAACCUGAGAAACACACGUUGUGGGAUAUUACCUGGUA, for which the self-cleavage was determined as 0.227. Then GUCCUCUUUCACGUGCGCGUGAAAGAGAGAAGUGAACCUGAGAAACACACGUUGUGGCAUAUUACCUGGUA, with 0.46.
